{"source": "paper doi:10.1101/2020.10.06.327809", "about": "(bioRxiv, 2020)", "proteins": {"B1": {"name": "SepF-His (H. volcanii SepF expressed in E. coli, plasmid pSVA3969) (natural protein, Haloferax volcanii, UniProt D4H018 1-118, looked up)", "chain": "MGIMSKILGGGGSRTTEDYVELDLDDFDTARGDAGLSVHIAEIGGQQDVIAIKDAVYDGNLVIADITRHTTSDSTMEHIIDDLRQVAREVDGDIVQKGDDQIVITPTGISISRQKLNG"}}, "target": "the molecule itself", "assay": "SEC", "data": [{"protein": "B1", "values": [{"measurement": "stoichiometry N", "result": 2}]}]}
